For data set [1], the system named is T1, Peptide4, OPN-ASARM derivative with the other two Ser residues changed to Ala.
T1 sequence: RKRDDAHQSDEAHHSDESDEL

Data set [2] deals with T2, Peptide3, OPN-ASARM derivative with the three G-CK consensus Ser residues changed to Ala.
T2 sequence: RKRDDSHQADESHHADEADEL

Data set [3] concerns T3, Peptide1, OPN-ASARM peptide (human Osteopontin 115Asp to 132Leu with N-terminal Arg-Lys-Arg).
T3 sequence: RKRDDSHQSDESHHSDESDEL

For the substance Casein Kinase I (NEB), the “in vitro kinase assay with peptide substrate” value in data set [1] was “had reduced, but similar levels of activity on both OPN-ASARM^3S-A and OPN-ASARM^2S-A”; in data set [2], “had reduced, but similar levels of activity on both OPN-ASARM^3S-A and OPN-ASARM^2S-A”; in data set [3], “CKI also phosphorylated OPN-ASARM”.

(Values after patent US20120184713.)
